The term Kd denotes the free concentration of one partner at which half of the binding sites on the other are occupied at equilibrium, for simple one-to-one binding. A higher Kd goes with lower affinity.

Assay [1] addresses T1, β-catenin (UniProt P35222 134-665, limits assumed, biotinylated in the SPR and plate assays).
T1 construct: also called beta catenin; biotinylated β-catenin
T1 sequence (looked up): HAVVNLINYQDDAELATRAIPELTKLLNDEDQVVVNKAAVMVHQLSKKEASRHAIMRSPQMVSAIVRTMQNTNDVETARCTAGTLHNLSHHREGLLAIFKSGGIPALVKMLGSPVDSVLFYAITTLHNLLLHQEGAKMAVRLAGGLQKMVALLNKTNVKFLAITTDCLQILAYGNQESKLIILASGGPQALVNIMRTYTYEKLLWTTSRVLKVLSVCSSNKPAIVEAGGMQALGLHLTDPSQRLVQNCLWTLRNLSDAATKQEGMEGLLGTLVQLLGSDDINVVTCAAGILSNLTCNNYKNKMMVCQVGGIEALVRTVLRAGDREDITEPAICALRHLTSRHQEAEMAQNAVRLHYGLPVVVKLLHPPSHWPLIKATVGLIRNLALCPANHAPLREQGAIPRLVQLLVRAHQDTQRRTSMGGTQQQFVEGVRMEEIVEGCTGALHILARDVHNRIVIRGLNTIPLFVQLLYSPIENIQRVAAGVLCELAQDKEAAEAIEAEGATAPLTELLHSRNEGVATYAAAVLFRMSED
The assay can be described thus: competitive FP. In short, it runs like this: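 Competitive fluorescence polarization with inhibitor peptide serially diluted from 10 nM to 30 uM; polarization read at 470 nm excitation, 520 nm emission. Experiments performed three times.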

For assay [2], the target named is T1, β-catenin. As to the kind of experiment: cell-based or functional assay.
Assay [3] concerns the target T1, β-catenin. As to the kind of experiment: SPR (Biacore). As for the experimental part:
Biotinylated protein (beta catenin) was immobilized on a high-affinity streptavidin (SA) sensor chip (GE). Peptide at increasing concentrations was flowed over in HBS EP+ buffer at room temperature according to manufacturer's instructions. The maximum binding capacity of the surface (response at saturation) was calculated using the Biacore® system (GE) instructions and binding was measured at each concentration as a data point. The binding levels were determined over a range of analyte concentrations of at least from 20% to 80% saturation of the surface. On rates, off rates, and KD were calculated using Biacore® Insight Evaluation Software software (GE).

Values joined by “and” are separate entries in the source; they are usually repeats but may differ in a detail not shown here. Identical values can stand only once. Bridges are numbered along the chain shown (N, C = ends). [ ]: non-standard residue; d: D form. The star is where a group is joined. Chg = N[C@H](C(=O)O)C1CCCCC1; Lauroyl = CCCCCCCCCCCC(=O)*; NMeA = CN[C@@H](C)C(=O)O

B1: SEQ ID NO: 461 (peptide)
peptide: Lauroyl-W[NMeA]QSILDKH[Chg]QDVW-NH2
modifications: lactam 8-12; not fully specified; printed as Lauroyl-NH-W-NMeA-QSILDK*H-Chg-QD*VW-NH2
Molecule B1 had a Kd in assay [1] of no more than 0.4 µM. For the same molecule, the “Wnt Reporter EC50” value in assay [2] is no more than 7.5 µM.

B2: SEQ ID NO: 452 (peptide)
peptide: WAQKILNDHGQAV
HELM: PEPTIDE1{[ac].W.[meA].Q.K.I.L.N.D.H.[O=C([C@@H](N[*:1])C1CCCCC1)[*:2]].Q.A.V.[am]}$PEPTIDE1,PEPTIDE1,5:R3-9:R3$$$V2.0
SMILES: CC[C@H](C)[C@@H]1NC(=O)[C@@H](NC(=O)[C@H](CCC(N)=O)NC(=O)[C@H](C)N(C)C(=O)[C@H](Cc2c[nH]c3ccccc23)NC(C)=O)CCCCNC(=O)C[C@@H](C(=O)N[C@@H](Cc2c[nH]cn2)C(=O)N[C@H](C(=O)N[C@@H](CCC(N)=O)C(=O)N[C@@H](C)C(=O)N[C@H](C(N)=O)C(C)C)C2CCCCC2)NC(=O)[C@H](CC(N)=O)NC(=O)[C@H](CC(C)C)NC1=O
B2: in assay [1], the Kd is > 0.4 µM and ≤ 1 µM. In addition, the “Wnt Reporter EC50” value in assay [2] was > 15 µM and ≤ 22.5 µM.

On to H-MWESILDEHVQRVWG-OH [SEQ ID NO: 22], for which, in assay [2], the “Wnt Reporter EC50” value was greater than 30 µM. In addition, in assay [3], the equilibrium dissociation constant (Kd) amounted to 1.37 µM.

B3: SEQ ID NO: 26 (peptide)
peptide: KMWFLISFWG
HELM: PEPTIDE1{K.M.W.F.L.I.S.F.W.G}$PEPTIDE1,PEPTIDE1,1:R3-10:R2$$$V2.0
SMILES: CC[C@H](C)[C@@H]1NC(=O)[C@H](CC(C)C)NC(=O)[C@H](Cc2ccccc2)NC(=O)[C@H](Cc2c[nH]c3ccccc23)NC(=O)[C@H](CCSC)NC(=O)[C@@H](N)CCCCNC(=O)CNC(=O)[C@H](Cc2c[nH]c3ccccc23)NC(=O)[C@H](Cc2ccccc2)NC(=O)[C@H](CO)NC1=O
As to B3, the “Wnt Reporter EC50” value in assay [2] is > 7.5 µM and ≤ 15 µM. This molecule returned a Kd in assay [3] of 0.11 µM.

For Lauroyl-W[NMeA]QKILDEH[Chg]EDVWK-NH2 (lactam 11-15, 4-8 (inferred)) [SEQ ID NO: 465], the equilibrium dissociation constant (Kd) in assay [1] was > 0.4 µM and ≤ 1 µM. Further, the “Wnt Reporter EC50” value in assay [2] was no more than 7.5 µM.

B4: SEQ ID NO: 28 (peptide)
peptide: KMSRMWFLISLWG
HELM: PEPTIDE1{K.M.S.R.M.W.F.L.I.S.L.W.G}$PEPTIDE1,PEPTIDE1,1:R3-13:R2$$$V2.0
SMILES: CC[C@H](C)[C@@H]1NC(=O)[C@H](CC(C)C)NC(=O)[C@H](Cc2ccccc2)NC(=O)[C@H](Cc2c[nH]c3ccccc23)NC(=O)[C@H](CCSC)NC(=O)[C@H](CCCNC(=N)N)NC(=O)[C@H](CO)NC(=O)[C@H](CCSC)NC(=O)[C@@H](N)CCCCNC(=O)CNC(=O)[C@H](Cc2c[nH]c3ccccc23)NC(=O)[C@H](CC(C)C)NC(=O)[C@H](CO)NC1=O
Regarding B4, in assay [2], the “Wnt Reporter EC50” value was > 22.5 µM and ≤ 30 µM. The molecule also returned a Kd in assay [3] of 0.803 µM.

Lauroyl-W[NMeA]QKILNDH[Chg]QAVW-NH2 (lactam 4-8) [SEQ ID NO: 459]: in assay [1], the Kd is no more than 0.4 µM. Moreover, the “Wnt Reporter EC50” value in assay [2] was no more than 7.5 µM.

WPQSILDEHGQKVW (not fully specified; Lauroyl-NH-WPQSILDE*H-Chg-QK*VW-NH2) [SEQ ID NO: 469] registered a Kd in assay [1] of no more than 0.4 µM. In addition, the “Wnt Reporter EC50” value in assay [2] is no more than 7.5 µM.

Turning to H-MSRMWYLISFWG-OH [SEQ ID NO: 66], in assay [1], the Kd is > 10 µM and ≤ 30 µM. The “Wnt Reporter EC50” value in assay [2] is > 7.5 µM and ≤ 15 µM.

Molecule H-MSRMWFLISFRG-OH [SEQ ID NO: 69] registered a Kd in assay [1] of no more than 0.4 µM. For the same molecule, in assay [2], the “Wnt Reporter EC50” value is greater than 30 µM.

Take WPQSILDKHGQDVW (not fully specified; Lauroyl-NH-WPQSILDK*H-Chg-QD*VW-NH2) [SEQ ID NO: 463]: the dissociation constant (Kd) in assay [1] is no more than 0.4 µM. Moreover, in assay [2], the “Wnt Reporter EC50” value was no more than 7.5 µM.

B5: SEQ ID NO: 1 (peptide)
peptide: GWWESILDEHVQRVWG
HELM: PEPTIDE1{[CCCCCCCCCCCCCC(=O)[*:2]].G.W.[meW].E.S.I.L.D.E.H.V.Q.R.V.W.G}$$$$V2.0
SMILES: CCCCCCCCCCCCCC(=O)NCC(=O)N[C@@H](Cc1c[nH]c2ccccc12)C(=O)N(C)[C@@H](Cc1c[nH]c2ccccc12)C(=O)N[C@@H](CCC(=O)O)C(=O)N[C@@H](CO)C(=O)N[C@H](C(=O)N[C@@H](CC(C)C)C(=O)N[C@@H](CC(=O)O)C(=O)N[C@@H](CCC(=O)O)C(=O)N[C@@H](Cc1c[nH]cn1)C(=O)N[C@H](C(=O)N[C@@H](CCC(N)=O)C(=O)N[C@@H](CCCNC(=N)N)C(=O)N[C@H](C(=O)N[C@@H](Cc1c[nH]c2ccccc12)C(=O)NCC(=O)O)C(C)C)C(C)C)[C@@H](C)CC
In assay [1], B5 returned a Kd of no more than 0.4 µM. Further, the “Proliferation IC50, Wnt dependent cells” value in assay [2] came to 18.5 µM.

B6: SEQ ID NO: 448 (peptide)
peptide: AQKILDEHGQRVWR
HELM: PEPTIDE1{[ac].[meA].Q.K.I.L.D.E.H.[O=C([C@@H](N[*:1])C1CCCCC1)[*:2]].Q.R.V.W.R.[am]}$PEPTIDE1,PEPTIDE1,4:R3-8:R3$$$V2.0
SMILES: CC[C@H](C)[C@@H]1NC(=O)[C@@H](NC(=O)[C@H](CCC(N)=O)NC(=O)[C@H](C)N(C)C(C)=O)CCCCNC(=O)CC[C@@H](C(=O)N[C@@H](Cc2c[nH]cn2)C(=O)N[C@H](C(=O)N[C@@H](CCC(N)=O)C(=O)N[C@@H](CCCNC(=N)N)C(=O)N[C@H](C(=O)N[C@@H](Cc2c[nH]c3ccccc23)C(=O)N[C@@H](CCCNC(=N)N)C(N)=O)C(C)C)C2CCCCC2)NC(=O)[C@H](CC(=O)O)NC(=O)[C@H](CC(C)C)NC1=O
The molecule B6 came in with a Kd in assay [1] of no more than 0.4 µM. Also, the “Wnt Reporter EC50” value in assay [2] was greater than 30 µM.

B7: SEQ ID NO: 471 (peptide)
peptide: Lauroyl-W[NMeA]QSILDEH[Chg]QKVWG-NH2
modifications: lactam 8-12; not fully specified; printed as Lauroyl-NH-W-NMeA-QSILDE*H-Chg-QK*VWG-NH2
In turn, B7 gave an equilibrium dissociation constant (Kd) in assay [1] of no more than 0.4 µM. Besides, the “Wnt Reporter EC50” value in assay [2] was no more than 7.5 µM.

B8: SEQ ID NO: 25 (peptide)
peptide: KMSRMWLLISFWG
HELM: PEPTIDE1{K.M.S.R.M.W.L.L.I.S.F.W.G}$PEPTIDE1,PEPTIDE1,1:R3-13:R2$$$V2.0
SMILES: CC[C@H](C)[C@@H]1NC(=O)[C@H](CC(C)C)NC(=O)[C@H](CC(C)C)NC(=O)[C@H](Cc2c[nH]c3ccccc23)NC(=O)[C@H](CCSC)NC(=O)[C@H](CCCNC(=N)N)NC(=O)[C@H](CO)NC(=O)[C@H](CCSC)NC(=O)[C@@H](N)CCCCNC(=O)CNC(=O)[C@H](Cc2c[nH]c3ccccc23)NC(=O)[C@H](Cc2ccccc2)NC(=O)[C@H](CO)NC1=O
For the molecule B8, the “Wnt Reporter EC50” value in assay [2] was > 7.5 µM and ≤ 15 µM. In assay [3], binding was put at a Kd of 0.112 µM.

B9: SEQ ID NO: 27 (peptide)
peptide: KMSRMWYLISFWG
HELM: PEPTIDE1{K.M.S.R.M.W.Y.L.I.S.F.W.G}$PEPTIDE1,PEPTIDE1,1:R3-13:R2$$$V2.0
SMILES: CC[C@H](C)[C@@H]1NC(=O)[C@H](CC(C)C)NC(=O)[C@H](Cc2ccc(O)cc2)NC(=O)[C@H](Cc2c[nH]c3ccccc23)NC(=O)[C@H](CCSC)NC(=O)[C@H](CCCNC(=N)N)NC(=O)[C@H](CO)NC(=O)[C@H](CCSC)NC(=O)[C@@H](N)CCCCNC(=O)CNC(=O)[C@H](Cc2c[nH]c3ccccc23)NC(=O)[C@H](Cc2ccccc2)NC(=O)[C@H](CO)NC1=O
With B9, the “Wnt Reporter EC50” value in assay [2] is greater than 30 µM. In assay [3], this molecule came in with a Kd of 0.515 µM.

B10: SEQ ID NO: 45 (peptide)
peptide: MWFLISFWAG
HELM: PEPTIDE1{M.W.F.L.I.S.F.W.[meA].G}$$$$V2.0
SMILES: CC[C@H](C)[C@H](NC(=O)[C@H](CC(C)C)NC(=O)[C@H](Cc1ccccc1)NC(=O)[C@H](Cc1c[nH]c2ccccc12)NC(=O)[C@@H](N)CCSC)C(=O)N[C@@H](CO)C(=O)N[C@@H](Cc1ccccc1)C(=O)N[C@@H](Cc1c[nH]c2ccccc12)C(=O)N(C)[C@@H](C)C(=O)NCC(=O)O
For B10, the equilibrium dissociation constant (Kd) in assay [1] was > 0.4 µM and ≤ 1 µM. Moreover, the “Wnt Reporter EC50” value in assay [2] is no more than 7.5 µM.

On to H-MWFLISFWEG-OH [SEQ ID NO: 47], for which the dissociation constant (Kd) in assay [1] was > 0.4 µM and ≤ 1 µM. Further, the “Wnt Reporter EC50” value in assay [2] was no more than 7.5 µM.

B11: SEQ ID NO: 467 (peptide)
peptide: Lauroyl-W[NMeA]QSILDEH[Chg]QKVW-NH2
modifications: lactam 8-12; not fully specified; printed as Lauroyl-NH-W-NMeA-QSILDE*H-Chg-QK*VW-NH2
For B11, in assay [1], the dissociation constant (Kd) is no more than 0.4 µM. In addition, the “Wnt Reporter EC50” value in assay [2] is no more than 7.5 µM.

The values above are taken from patent publication US20260098059A1 (ENDOMET BIOSCIENCES, published 2026).
